Test results taken from the DeepSol protein solubility set.

Experiment: soluble on expression in E. coli; label from the status in PepcDB or PDB records

Question: Which “soluble on expression in E. coli” value does the source give for “MGSDKIHHHHHHMNPLETLWQLAANSVKADVLHLALEQQIFDRLEDVTAPEQLAESLGWQPEKTGFLLEILWSMQLLTRHHGGYRTASASSAVLCRSSPRFLGDAWRFRLTSLRQFGQGLADGMHQPLPAQLSELPRDAAWASAAEQQIAQEQRSITADLADQLLSRLPDFPQIRHVLDLGGGPGWVAITLALRHAQISGTIYDLPQTAAVAQRNINAAGLSARLSAQSGAFPSEKYDLIWSSSFLHFVEDIPAMLSTLYNTLTPDGSLVLAQAEIPEEADDAAPILPFYLPMQISGRHVTQEGQLTQWLVEAGFTSVETRRHQAFPMAPLNVLIARKHR” here?
Answer: not soluble

Question: With “MGSDKIHHHHHHMNQHTLLPKKTERLQYFGSVSPIKGEKPVEKEKMKDLQNIRKDYFFDIQHVGVANVSHPVTITSAMMPAEQTTAANFTMTCNLPRNQKGINMSRLTELLQVYHQNGWILSFSSLQQFTKELAENMDTSSATVEVRFPWFFERKSPKLEKAGLMHADIFMSVTYRKDQPFKQRAGISAKVTTLCPCSKEISEYSAHNQRGTVKHLGRIFTRAASLPSDVKADLPHAAESNASARLHPVLKRPDEKAVTETAYENPRFVEDLARLIAADLFELEWVSAFEIECRNEESIHLHRCLCEVCFSKEVDKI” as the sequence, how does the “soluble on expression in E. coli” value read?
Answer: not soluble

Question: Which “soluble on expression in E. coli” value does the source give for “MGSDKIHHHHHHMNRTQLSQLAVLSAVAAHGSFRGAAKELGIAPSAVSHAVGSLEASLGVRLLARTTRSVAATEEGKRLLERLRPALDDIAEALQRAAEARDRPAGKLRITAPRFAADLILAPRLGDFLGRYPDTVLEIANEDGFTNIVEEGYDAGIRLGESLEADMVAVKVGPELKSAVVAAPSYFERFQRPRHPRDLAGHRCIRRRFSNGTIYRWEFEKEGEELTVSVNGPLILGEDRPIIEAATGGAGLAYLFEPRVSGYVAEGKLVRVLEDWCAPYAGPFLYYPTRRLMRPALRAFIDFFRHSG” here?
Answer: not soluble

Question: With “MGSDKIHHHHHHMNSDIIVADFWKNNEEILTDFDKDSFCESWTENEMWSIEFKVAQTPKNAHCYSFLDYESSVYFRGQEFVVKQLSHDAVGKTLSKDIRAPHIYYTCQDGRQDDAITGSFTLEQCLTHIFKTDNRGFSWEIIDPSNILEKVQQENFGNNNYLTLIDQLLDDYGVVVIPDNRHLVFKPREIYGAKTENFIRYKYNTDEASFDIDTLSLKTKIKGYGKVDSNGNNYFSPITYTSPEVEKWGIRWQEPVSDERYTVAGNMQRRLKLELQDYPATTGSVILKNDYECEKGDYVLFIYEPLGIDYDVQIVAYKKYPFTIKAPEITLSNNKKSIVSIMAQLAKVLKGAK” as the sequence, how does the “soluble on expression in E. coli” value read?
Answer: not soluble

Question: Which “soluble on expression in E. coli” value does the source give for “MGSDKIHHHHHHMNSIQLKAVSFSREQPLFEKTNLAIPQGTFSLLIGDSGSGKSTLLRLIAGFAPLDYQGEILIEGMERRQLSTREKAQKIGMLFQNPSQQFTMKTLERELIFALENLGIPPEEMNRKIQTALQLVQTQTLFTRELATLSGGEKQKAALTVLLAMNPDILLLDEPFASIDPTSRKQFIQILARLHQAGKTILVCDHDFSDYADVVDQVVTLKNGQFEKQPLTFIKTKPQTFQLTTSVVKQPMLQLKNFRLSQGKRVLLEEKEALLFKGITTLTGPNGAGKSTLLKAIVQRQKYQGKMFLAGRRLRASKKLYQHMTLAVQQANRQFVTLTLREELLFGQNMTAEKRRKQEEALTFLGLKEKLEHSVFQLSEGQKKMVQLISLLSLDLDCLLLDEPFAGLDERACNYFVEWIKEKSAQQDFLIVTHRLEPLSGVSNYRIELLQQQLIIWQEGTTCK” here?
Answer: not soluble

Question: With “MGSDKIHHHHHHMNTHKHARLTFLRRLEMVQQLIAHQVCVPEAARAYGVTAPTVRKWLGRFLAQGQAGLADASSRPTVSPRAIAPAKALAIVELRRKRLTQARIAQALGVSASTVSRVLARAGLSHLADLEPAEPVVRYEHQAPGDLLHIDIKKLGRIQRPGHRVTGNRRDTVEGAGWDFVFVAIDDHARVAFTDIHPDERFPSAVQFLKDAVAYYQRLGVTIQRLLTDNGSAFRSRAFAALCHELGIKHRFTRPYRPQTNGKAERFIQSALREWAYAHTYQNSQHRADAMKSWLHHYNWHRPHQGIGRAVPISRLNLDEYNLLTVHS” as the sequence, how does the “soluble on expression in E. coli” value read?
Answer: not soluble

Question: With “MGSDKIHHHHHHMNTQPVIGISGCLTGSAVRFDGGHKRMGFVMDELAQWVAFKPVCPEMAIGLPVPRPALRLVQTPVGEIRMRFSHAPHEDVTEKMADFASAHLATLGGLSGFIVCAKSPSCGMERVRLYDEKGNRGRKEGVGLFTGALMARYPWLPVEEDGRLHDPLLRENFVERVFALHELNALRARGLTRHGLLAFHSRYKLQLLAHHQAGYREIGPFVASLHEWEDLEAFFEVYREKLMAILKQPASRKNHTNVLMHIQGYFRDQLNSRQRGELREVILNYRAGLLPILAPLTLLKHYLAEYPDRYLQAQNYFDPYPQDLALRLTVN” as the sequence, how does the “soluble on expression in E. coli” value read?
Answer: not soluble

Question: With “MGSDKIHHHHHHMNTYAQESKLRLKTKIGADGRCVIEDNFFTPPFKLMAPFYPKDDLAEIMLLAVSPGMMRGDAQDVQLNIGPNCKLRITSQSFEKIHNTEDGFASRDMHIVVGENAFLDFAPFPLIPFENAHFKGNTTISLRSSSQLLYSEIIVAGRVARNELFKFNRLHTKISILQDEKPIYYDNTILDPKTTDLNNMCMFDGYTHYLNLVLVNCPIELSGVRECIEESEGVDGAVSETASSHLCVKALAKGSEPLLHLREKIARLVTQTTTQKV” as the sequence, how does the “soluble on expression in E. coli” value read?
Answer: not soluble

Question: For “MGSDKIHHHHHHMNTYHPFSLTTPSTLMIQDWAQTNQNNKEVIAGFTTKNGGVSQKPFESLNTGLHVHDKDADVVKNREYIADMFNTDLQSWVFADQTHDNRVQKVTQRDRGKGAREYHTALKATDGIYTNEKNVFLALCFADCVPLFFYDPVKSLVGVAHAGWKGTVKQIGREMVKQWTEKEGSNPSDIYAVIGPSISGACYTVDDRVMDAVRALPVSADLAANQTAKAQYQLDLKELNRLILMDSGLASEQISVSGLCTESEPSLFYSHRRDQGKTGRMMSFIGMKEA”, which “soluble on expression in E. coli” value is on record?
Answer: not soluble

Question: With “MGSDKIHHHHHHMNVINETANVLKLETGSVTSAKGFSAVGIHTGVKRKRKDLGAIVCEVPASSAAVYTLNKVQAAPLKVTQESIAVEGKLQAMIVNSGIANACTGKRGLDDAYTMRAVGAETFHIPEHYVAVTSTGVIGEFLPMDVITNGIRQLKPEATIEGAHAFNEAILTTDTVEKHTCYQTIVNGKTVTVGGVAKGSGMIHPNMA” as the sequence, how does the “soluble on expression in E. coli” value read?
Answer: soluble

Question: Which “soluble on expression in E. coli” value does the source give for “MGSDKIHHHHHHMNVLALDTSQRIRIGLRKGEDLFEISYTGEKKHAEILPVVVKKLLDELDLKVKDLDVVGVGIGPGGLTGLRVGIATVVGLVSPYDIPVAPLNSFEMTAKSCPADGVVLVARRARKGYHYCAVYLKDKGLNPLKEPSVVSDEELEEITKEFSPKIVLKDDLLISPAVLVEESERLFREKKTIHYYEIEPLYLQKSIAELNWEKKKRG” here?
Answer: soluble

Question: Which “soluble on expression in E. coli” value does the source give for “MGSDKIHHHHHHMNVRQLEAFQAVMSAGSLTAAAGLLSVSQPAVSQLIAQLEGNCGFSLFDRAGTKMRPTREAEVLHAEVQRMFIGVGRVANVAKALRDQTWGALSIASFPVLTRRMLPNIVTSFCKTRPDVKFSVESMRSRSLVDAVATQQVDLGFSILPGDRPEVDSTHVCTLRGLCILPKGHRLSKRRLIRAKDLDGEAFVALGPQDHSRFQIDKIFEEADVQRRIQVEVGQSETACSFVANGVGVAVVDPISVWNNAGADFVVCAFEPKMEFEIWLIRPKTARPFALIDTFSDYACAELMRLKEEEIDIRQPRG” here?
Answer: not soluble

Question: With “MGSDKIHHHHHHMNVTLRQLQAFIAVAELGRFHLAADHLGLTQSAISILIKDLEVALKHRLFDRHTRMVSLTTAGAEFLPQARKIMSDLEIAVANVHELASLQRGRVTIAAAIVLAATLLPPVIARFVKRYPDISVQVRDMPEEEIRSALKRNEADLGIGTVSADDPEIQASVLMRDQLTLICRSDHRFAKARQVSWASLAGEGVIGLAKDNPLRGLVDRALIASGVEVKTRYEVRFSTTAISMVAEGLGIAILPENSRQLTTNVDVRIVELVDPVISRNISILQYRQPMLSPAAAKMKEFLMGASRKLS” as the sequence, how does the “soluble on expression in E. coli” value read?
Answer: not soluble

Question: With “MGSDKIHHHHHHMPDAAGGVRVPHPPRPFDRPDRPAARLCRTQQLHPRVPPLERHLAPRLAGTAEPDRALKPQDKSLSKADPMTRLLLLEGNTADKRARGRELGVRSSSEIYAQAIAAHFPRIELDVLNGADEGEAIPHDRSWADYDGFVVTGSSLHAYDREFAVTNQIALVAQAAEHGLPIFGSCWGLQIAVMAAGGEVAYNPRGREVGFARKIALNDAGRAHPMFGAKQHVFDAPCIHYDEVVRMPDGATLLASNGHSLVQAAVIPLGQSEVWAVQYHPEFDLAQLVQLYTLYAADMIAQGFFSNEAELVAYRDKIARLAQDPTDAGLAWQLGIDADVLDPRQRAAEIIAWIESRVLNGT” as the sequence, how does the “soluble on expression in E. coli” value read?
Answer: not soluble
